Data taken from US20230134571A1 (INTERNATIONAL AIDS VACCINE INITIATIVE, published 2023).
Substitutions are numbered along the chain they refer to.

B1: ePGDM13 (antibody, V domains shown)
VH: QAQLVQSGPEVRKPGTSVKVSCKNPGNTLTTYDLHWVRQVPGQGLQWMGWISHEGDKKVIVERFKAKVTIDWDRSTNTAYLQLSGLTSEDTAVYYCAKGSKHRLRDYALYDEDGALNWAVDVDYLANLEFWGQGTAVTVSS
VL: DIVLTQSPLSLSVTPGESASISCKSSHSLQHGDRNNYLAWYVQKPGRSPQLLLDLASERASGVPDRFSGSGSEKDFTLKISRVETEDVGTYYCMQGRESPWTFGQGTKVDIK
B2: ePGDM5 (antibody, V domains shown)
VH: B1 VH
VL: B1 VL with I2F, S26D, L53I, E73R, S81D, T85A
B3: ePGDM9 (antibody, V domains shown)
VH: B1 VH
VL: B1 VL with H27Q, Q30I, L53I, E73R

These binders were tested against HIV Env of isolate HIV-16055-2.3 (clade C) (HIV) (assay: cell-based or functional assay).

Compared with B1, B2 is 1.5-fold lower in “IC50 (µg/ml) with constrains” value: 0.003 µg/mL for the first, 0.002 µg/mL for the second.

In the case of B3, the “IC50 (µg/ml) with constrains” value is reported as 0.001 µg/mL.

The binders below were run against HIV Env of isolate 620345.c01 (clade AE) (HIV) (assay: cell-based or functional assay).

B1 and B2 cannot be ordered by “IC50 (µg/ml) with constrains” value: greater than 100 µg/mL for the first, greater than 100 µg/mL for the second.

B3 was tested, and the “IC50 (µg/ml) with constrains” value was greater than 100 µg/mL.

B1 and B2 cannot be ordered by “IC80 (µg/ml) with constrains” value: greater than 100 µg/mL for the first, greater than 100 µg/mL for the second.

In the case of B3, the “IC80 (µg/ml) with constrains” value is reported as greater than 100 µg/mL.

These binders were tested against HIV Env of isolate 1394C9G1(Rev-) (clade C) (HIV) (assay: cell-based or functional assay).

Compared with B1, B2 is 1.5-fold lower in “IC50 (µg/ml) with constrains” value: 0.003 µg/mL for the first, 0.002 µg/mL for the second.

In the case of B3, the “IC50 (µg/ml) with constrains” value is reported as 0.001 µg/mL.

The binders below were run against HIV Env of isolate CAAN5342.A2 (clade B) (HIV) (assay: cell-based or functional assay).

Going from B1 to B2, the “IC50 (µg/ml) with constrains” value rises from 40.2 µg/mL to 73 µg/mL (1.8-fold).

For B3, the “IC50 (µg/ml) with constrains” value was 17.5 µg/mL.

The binders below were run against HIV Env of isolate HIV-0013095-2.11 (clade C) (HIV) (assay: cell-based or functional assay).

B1 and B2 cannot be ordered by “IC50 (µg/ml) with constrains” value: greater than 100 µg/mL for the first, greater than 100 µg/mL for the second.

With B3 the “IC50 (µg/ml) with constrains” value was greater than 100 µg/mL.

These binders were tested against HIV Env of isolate Ce704809221_1B3 (clade C) (HIV) (assay: cell-based or functional assay).

First: B1
Second: B2
The “IC50 (µg/ml) with constrains” value of the first is 1.8-fold higher: 0.339 µg/mL for the first, 0.187 µg/mL for the second.

For B3, the “IC50 (µg/ml) with constrains” value was 0.135 µg/mL.

Each binder was assayed against HIV Env of isolate Ce703010054_2A2 (clade C) (HIV) (assay: cell-based or functional assay).

B1 and B2 are the same in “IC50 (µg/ml) with constrains” value: 0.008 µg/mL for the first, 0.008 µg/mL for the second.

In the case of B3, the “IC50 (µg/ml) with constrains” value is reported as 0.008 µg/mL.

What follows are binders tested against HIV Env of isolate C1080.c03 (clade AE) (HIV) (assay: cell-based or functional assay).

Going from B1 to B2, the “IC50 (µg/ml) with constrains” value rises from 0.001 µg/mL to 0.003 µg/mL (3-fold).

B3 was tested, and the “IC50 (µg/ml) with constrains” value was 0.001 µg/mL.

Compared with B1, B2 is 3.7-fold higher in “IC80 (µg/ml) with constrains” value: 0.003 µg/mL for the first, 0.011 µg/mL for the second.

B3 was tested, and the “IC80 (µg/ml) with constrains” value was 0.004 µg/mL.

The binders below were run against HIV Env of isolate CNE58 (clade BC) (HIV) (assay: cell-based or functional assay).

B1 and B2 are within 1.5-fold of each other in “IC50 (µg/ml) with constrains” value: 0.003 µg/mL for the first, 0.004 µg/mL for the second.

For B3, the “IC50 (µg/ml) with constrains” value was 0.002 µg/mL.

The binders below were run against HIV Env of isolate 0260.v5.c36 (clade A) (HIV) (assay: cell-based or functional assay).

B1 and B2 are within 1.5-fold of each other in “IC50 (µg/ml) with constrains” value: 0.025 µg/mL for the first, 0.021 µg/mL for the second.

In the case of B3, the “IC50 (µg/ml) with constrains” value is reported as 0.018 µg/mL.

B1 and B2 are within 1.5-fold of each other in “IC80 (µg/ml) with constrains” value: 0.098 µg/mL for the first, 0.084 µg/mL for the second.

B3 was tested, and the “IC80 (µg/ml) with constrains” value was 0.073 µg/mL.

These binders were tested against HIV Env of isolate 6545.v4.c1 (clade AC) (HIV) (assay: cell-based or functional assay).

First: B1
Second: B2
The “IC50 (µg/ml) with constrains” value of the first is 1.8-fold higher: 0.076 µg/mL for the first, 0.043 µg/mL for the second.

With B3 the “IC50 (µg/ml) with constrains” value was 0.041 µg/mL.

First: B1
Second: B2
The “IC80 (µg/ml) with constrains” value of the first is 1.8-fold higher: 0.305 µg/mL for the first, 0.17 µg/mL for the second.

With B3 the “IC80 (µg/ml) with constrains” value was 0.164 µg/mL.

What follows are binders tested against HIV Env of isolate 6540.v4.c1 (clade AC) (HIV) (assay: cell-based or functional assay).

B1 and B2 are within 1.5-fold of each other in “IC50 (µg/ml) with constrains” value: 0.015 µg/mL for the first, 0.012 µg/mL for the second.

B3 was tested, and the “IC50 (µg/ml) with constrains” value was 0.008 µg/mL.

B1 and B2 are within 1.5-fold of each other in “IC80 (µg/ml) with constrains” value: 0.06 µg/mL for the first, 0.05 µg/mL for the second.

With B3 the “IC80 (µg/ml) with constrains” value was 0.031 µg/mL.

These binders were tested against HIV Env of isolate BJOX015000.11.5 (clade AE) (HIV) (assay: cell-based or functional assay).

Compared with B1, B2 is 1.6-fold lower in “IC50 (µg/ml) with constrains” value: 1.72 µg/mL for the first, 1.1 µg/mL for the second.

In the case of B3, the “IC50 (µg/ml) with constrains” value is reported as 0.958 µg/mL.

First: B1
Second: B2
The “IC80 (µg/ml) with constrains” value of the first is 1.6-fold higher: 6.86 µg/mL for the first, 4.39 µg/mL for the second.

B3 was tested, and the “IC80 (µg/ml) with constrains” value was 3.83 µg/mL.

What follows are binders tested against HIV Env of isolate R2184.c04 (clade AE) (HIV) (assay: cell-based or functional assay).

B1 and B2 are within 1.5-fold of each other in “IC50 (µg/ml) with constrains” value: 0.005 µg/mL for the first, 0.004 µg/mL for the second.

For B3, the “IC50 (µg/ml) with constrains” value was 0.003 µg/mL.

B1 and B2 are within 1.5-fold of each other in “IC80 (µg/ml) with constrains” value: 0.019 µg/mL for the first, 0.017 µg/mL for the second.

For B3, the “IC80 (µg/ml) with constrains” value was 0.011 µg/mL.

Each binder was assayed against HIV Env of isolate CNE20 (clade BC) (HIV) (assay: cell-based or functional assay).

B1 and B2 are the same in “IC50 (µg/ml) with constrains” value: 0.004 µg/mL for the first, 0.004 µg/mL for the second.

With B3 the “IC50 (µg/ml) with constrains” value was 0.002 µg/mL.

Each binder was assayed against HIV Env of isolate Du422.1 (clade C) (HIV) (assay: cell-based or functional assay).

Going from B1 to B2, the “IC50 (µg/ml) with constrains” value falls from 27.5 µg/mL to 8.64 µg/mL (3.2-fold).

With B3 the “IC50 (µg/ml) with constrains” value was 13.3 µg/mL.

These binders were tested against HIV Env of isolate ZM214M.PL15 (clade C) (HIV) (assay: cell-based or functional assay).

B1 and B2 cannot be ordered by “IC50 (µg/ml) with constrains” value: greater than 100 µg/mL for the first, greater than 100 µg/mL for the second.

With B3 the “IC50 (µg/ml) with constrains” value was greater than 100 µg/mL.

The binders below were run against HIV Env of isolate HIV-16845-2.22 (clade C) (HIV) (assay: cell-based or functional assay).

B1 and B2 cannot be ordered by “IC50 (µg/ml) with constrains” value: greater than 100 µg/mL for the first, greater than 100 µg/mL for the second.

With B3 the “IC50 (µg/ml) with constrains” value was greater than 100 µg/mL.

The binders below were run against HIV Env of isolate AC10.0.29 (clade B) (HIV) (assay: cell-based or functional assay).

B1 and B2 are within 1.5-fold of each other in “IC50 (µg/ml) with constrains” value: 0.194 µg/mL for the first, 0.275 µg/mL for the second.

In the case of B3, the “IC50 (µg/ml) with constrains” value is reported as 0.074 µg/mL.

Each binder was assayed against HIV Env of isolate Ce1176_A3 (clade C) (HIV) (assay: cell-based or functional assay).

B1 and B2 are within 1.5-fold of each other in “IC50 (µg/ml) with constrains” value: 0.031 µg/mL for the first, 0.022 µg/mL for the second.

B3 was tested, and the “IC50 (µg/ml) with constrains” value was 0.022 µg/mL.

What follows are binders tested against HIV Env of isolate CNE21 (clade BC) (HIV) (assay: cell-based or functional assay).

Going from B1 to B2, the “IC50 (µg/ml) with constrains” value rises from 0.001 µg/mL to 0.002 µg/mL (2-fold).

For B3, the “IC50 (µg/ml) with constrains” value was 0.002 µg/mL.

The binders below were run against HIV Env of isolate CNE5 (clade AE) (HIV) (assay: cell-based or functional assay).

B1 and B2 are the same in “IC50 (µg/ml) with constrains” value: 0.001 µg/mL for the first, 0.001 µg/mL for the second.

In the case of B3, the “IC50 (µg/ml) with constrains” value is reported as 0.001 µg/mL.

B1 and B2 are the same in “IC80 (µg/ml) with constrains” value: 0.004 µg/mL for the first, 0.004 µg/mL for the second.

For B3, the “IC80 (µg/ml) with constrains” value was 0.003 µg/mL.

The binders below were run against HIV Env of isolate 191955_A11 (clade A) (HIV) (assay: cell-based or functional assay).

Going from B1 to B2, the “IC50 (µg/ml) with constrains” value rises from 0.008 µg/mL to 0.021 µg/mL (2.6-fold).

B3 was tested, and the “IC50 (µg/ml) with constrains” value was 0.007 µg/mL.

Compared with B1, B2 is 2.5-fold higher in “IC80 (µg/ml) with constrains” value: 0.033 µg/mL for the first, 0.083 µg/mL for the second.

With B3 the “IC80 (µg/ml) with constrains” value was 0.029 µg/mL.

The binders below were run against HIV Env of isolate Q842.d12 (clade A) (HIV) (assay: cell-based or functional assay).

B1 and B2 cannot be ordered by “IC50 (µg/ml) with constrains” value: greater than 100 µg/mL for the first, greater than 100 µg/mL for the second.

For B3, the “IC50 (µg/ml) with constrains” value was greater than 100 µg/mL.

B1 and B2 cannot be ordered by “IC80 (µg/ml) with constrains” value: greater than 100 µg/mL for the first, greater than 100 µg/mL for the second.

In the case of B3, the “IC80 (µg/ml) with constrains” value is reported as greater than 100 µg/mL.

The binders below were run against HIV Env of isolate T255-34 (clade AG) (HIV) (assay: cell-based or functional assay).

Going from B1 to B2, the “IC50 (µg/ml) with constrains” value rises from 0.007 µg/mL to 0.018 µg/mL (2.6-fold).

For B3, the “IC50 (µg/ml) with constrains” value was 0.002 µg/mL.

Going from B1 to B2, the “IC80 (µg/ml) with constrains” value rises from 0.029 µg/mL to 0.071 µg/mL (2.4-fold).

For B3, the “IC80 (µg/ml) with constrains” value was 0.008 µg/mL.

These binders were tested against HIV Env of isolate Ce0393_C3 (clade C) (HIV) (assay: cell-based or functional assay).

First: B1
Second: B2
The “IC50 (µg/ml) with constrains” value of the first is 2.7-fold lower: 0.006 µg/mL for the first, 0.016 µg/mL for the second.

B3 was tested, and the “IC50 (µg/ml) with constrains” value was 0.004 µg/mL.
